{"source": "paper PMC2415180", "about": "(BMC Biotechnology, 2008)", "key": {"[1]": {"target": "BChE/hSA fusion protein (recombinant human butyrylcholinesterase fused to human serum albumin) in the milk of transgenic goats (human) (UniProt P06276)", "test": "SEC + native gel or EMSA"}, "[2]": {"target": "BChE/hSA fusion protein (recombinant human butyrylcholinesterase fused to human serum albumin) in the milk of transgenic mice (human) (UniProt P06276)", "test": "SEC + native gel or EMSA"}, "[3]": {"target": "the molecule itself", "test": "SEC"}}, "data": [{"molecule": "BChE/hSA fusion protein (recombinant human butyrylcholinesterase fused to human serum albumin) in the milk of transgenic goats (from UniProt P06276 29-602; P02768 25-609) (enzyme)", "values": [{"measurement": "stoichiometry N", "setting": "[1]", "result": 2}]}, {"molecule": "BChE/hSA fusion protein (recombinant human butyrylcholinesterase fused to human serum albumin) in the milk of transgenic mice (from UniProt P06276 29-602; P02768 25-609) (enzyme)", "values": [{"measurement": "stoichiometry N", "setting": "[2]", "result": 2}]}, {"molecule": "recombinant human butyrylcholinesterase produced transgenically in goat milk, tetramer-enriched preparation (>70% tetramer) (enzyme, UniProt P06276 29-602, looked up, also called tetramer-enriched BChE; BChE produced transgenically (>70% tetramer)) EDDIIIATKNGKVRGMNLTVFGGTVTAFLGIPYAQPPLGRLRFKKPQSLTKWSDIWNATKYANSCCQNIDQSFPGFHGSEMWNPNTDLSEDCLYLNVWIPAPKPKNATVLIWIYGGGFQTGTSSLHVYDGKFLARVERVIVVSMNYRVGALGFLALPGNPEAPGNMGLFDQQLALQWVQKNIAAFGGNPKSVTLFGESAGAASVSLHLLSPGSHSLFTRAILQSGSFNAPWAVTSLYEARNRTLNLAKLTGCSRENETEIIKCLRNKDPQEILLNEAFVVPYGTPLSVNFGPTVDGDFLTDMPDILLELGQFKKTQILVGVNKDEGTAFLVYGAPGFSKDNNSIITRKEFQEGLKIFFPGVSEFGKESILFHYTDWVDDQRPENYREALGDVVGDYNFICPALEFTKKFSEWGNNAFFYYFEHRSSKLPWPEWMGVMHGYEIEFVFGLPLERRDNYTKAEEILSRSIVKRWANFAKYGNPNETQNNSTSWPVFKSTEQKYLTLNTESTRIMTKLRAQQCRFWTSFFPKVLEMTGNIDEAEWEWKAGFHRWNNYMMDWKNQFNDYTSKKESCVGL", "values": [{"measurement": "stoichiometry N", "setting": "[3]", "result": 4}]}]}
